In paper PMC6900432, “Zinc binding regulates amyloid-like aggregation of GAPR-1” (Bioscience Reports, 2019):

Biological target: the molecule itself
Assay: non-reducing SDS/PAGE and Western blot of oligomers; 15 uM GAPR-1 with 37.5 uM heparin and 100 uM Zn2+ in NT-50 buffer (25 mM Tris, 50 mM NaCl, pH 7.4) at 37 C; aliquots at 0, 2, 7 and 20 h, non-reducing Laemmli buffer, boiled 5 min; blot with rabbit polyclonal anti-GAPR-1

B1: Golgi-Associated plant Pathogenesis Related protein 1 (GAPR-1), wild type (natural protein)
chain: MGKSASKQFHNEVLKAHNEYRQKHGVPPLKLCKNLNREAQQYSEALASTRILKHSPESSRGQCGENLAWASYDQTGKEVADRWYSEIKNYNFQQPGFTSGTGHFTAMVWKNTKKMGVGKASASDGSSFVVARYFPAGNVVNEGFFEENVLPPKK
notes: GAPR-1 (GLIPR-2), UniProt Q9H4G4 as printed; No tag is named; purification was by cation exchange; also called GAPR-1 WT; GLIPR-2; source: E. coli XL-1 Blue, purified (cation exchange, SP Sepharose FF)
binding result: binds
